Data: publication PMC12598616, “Design and optimization of caspase-1-responsive fluorescent probes for pyroptosis imaging and anti-pyroptosis drug screening” (Chemical Science, 2025)

Tested on: THP-1 cells
Test: Cytotoxicity assay (CCK-8)
Type: cell-based
Conditions: CCK-8, 0–50 μM, 12 h, 37 °C
Protocol: Cytotoxicity assay (CCK-8)
The cytotoxicity of FPy1 and YPy1 to THP-1 was evaluated by cell counting kit-8 (CCK-8). Briefly, the THP-1 cells were seeded in 96-well plates (5000 cells/well) and cultured at 37 °C for 24 hours. Various concentrations of FPy1 or YPy1 (0, 2.5, 5, 10, 20, 30, 40, 50 μM) in RPMI 1640 medium were added, and the cells were kept incubation for 12 hours. Then, the cells were washed with PBS and incubated in the 100 μL fresh medium with 10 μL CCK8 dye for an additional 2 hours. The absorbance was measured at 450 nm using a Tecan Infinite M1000 Multi-function microplate reader, and cell viability was calculated using the formula:
Cell viability (%) = [(OD test-ODblank)/(ODcontrol-ODblank)] ×100%
Intracellular imaging with FPy1 in THP-1 cells
THP-1 cells were seeded in dishes and cultured overnight. […] The fluorescence imaging was performed under the excitation at 514 nm with signal collection in the range […]
for 4 hours, the cells were further treated with Nig (10 μM) for 2 hours. […] The distribution of FPy1 was analyzed by collecting organelle-specific dye fluorescence at 495-525 nm with 488 nm excitation, while simultaneously detecting FPy1 fluorescence at 530-610 nm with 514 nm excitation. […]
Nucleus pulposus cells were isolated from discs and resuspended in 1mL DMEM/F12 medium containing 10 μM ITS-A. A total of […] were counted and transferred into centrifuge tubes. […]

Substance	cytotoxicity towards THP-1 cells
–FLTDG– [FPy1, RhoB donor, hNR quencher]	low cytotoxicity
–YVADG– [YPy1, caspase-1-responsive FRET probe with recognition peptide –YVADG–; RhoB donor, hNR quencher]	low cytotoxicity
